The target of assay [1] is MBP-E6 F2V (human papillomavirus type 16). Nature of the assay: bead-based binding assay on filter plates (alkaline phosphatase luminescence); MBP-E6 held on amylose beads at indicated concentrations or 0.67 uM; E6AP-BAP added at 50 nM, 1-3 h, room temperature; 400 mM NaCl, 50 mM Tris-HCl pH 6.8, 0.1% milk, 1 mM DTT; amylose bead control subtracted.
The target of assay [2] is E6AP-BAP (aa 371-440) fusion protein (UniProt Q05086).
Assay [3] deals with T1, E6AP-BAP (aa 371-440) fusion protein (UniProt Q05086 371-440).
T1 sequence (looked up): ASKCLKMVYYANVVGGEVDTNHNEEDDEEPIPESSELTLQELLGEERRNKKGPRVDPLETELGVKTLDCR
Nature of the assay: cell-based or functional assay.

The text below walks through data of PMC4767726, “Molecular Probing of the HPV-16 E6 Protein Alpha Helix Binding Groove with Small Molecule Inhibitors” (PLoS ONE, 2016).

For “E6AP-BAP (aa 371-440) fusion protein (from UniProt Q05086 371-440) (domain or fragment)”, the percent of the wild-type binding capacity (% of wild type) in assay [1] was 70.

As to MBP-E6 R55A (natural protein), the p53 in vitro degradation by purified MBP-E6 in rabbit reticulocyte lysate, 2 h; activity against wild type in assay [2] was found to be 50%.

In assay [2], MBP-E6 R102A (natural protein) showed a p53-luciferase reporter level in C33A cells transfected with HPV-16 E6 expression vector (untagged, pLXSN), EC50 in ng of DNA of 172 ng; a p53 in vitro degradation, 3 h incubation, 0.25 and 1 uM MBP-E6 R102A; decrease of p53 of 50%.

B1: MBP-HPV-16 E6 (wild-type) (natural protein, human papillomavirus type 16, UniProt P03126 1-158, looked up)
chain: MHQKRTAMFQDPQERPRKLPQLCTELQTTIHDIILECVYCKQQLLRREVYDFAFRDLCIVYRDGNPYAVCDKCLKFYSKISEYRHYCYSLYGTTLEQQYNKPLCDLLIRCINCQKPLCPEEKQRHLDKKQRFHNIRGRWTGRCMSCCRSSRTRRETQL
With B1, the “p53-luciferase reporter level in C33A cells transfected with HPV-16 E6 expression vector (untagged, pLXSN), EC50 in ng of DNA” value in assay [3] was 32 ng.
